From patent US20090143241A1

Target: ClpXP protease (E. coli ClpX6 with ClpP14) (E. coli) (UniProt P0A6H1)
Assay: cell-based or functional assay

ClpXP protease (E. coli ClpX6 with ClpP14) (E. coli), sequence (P0A6H1 whole entry, chain 1 of 2): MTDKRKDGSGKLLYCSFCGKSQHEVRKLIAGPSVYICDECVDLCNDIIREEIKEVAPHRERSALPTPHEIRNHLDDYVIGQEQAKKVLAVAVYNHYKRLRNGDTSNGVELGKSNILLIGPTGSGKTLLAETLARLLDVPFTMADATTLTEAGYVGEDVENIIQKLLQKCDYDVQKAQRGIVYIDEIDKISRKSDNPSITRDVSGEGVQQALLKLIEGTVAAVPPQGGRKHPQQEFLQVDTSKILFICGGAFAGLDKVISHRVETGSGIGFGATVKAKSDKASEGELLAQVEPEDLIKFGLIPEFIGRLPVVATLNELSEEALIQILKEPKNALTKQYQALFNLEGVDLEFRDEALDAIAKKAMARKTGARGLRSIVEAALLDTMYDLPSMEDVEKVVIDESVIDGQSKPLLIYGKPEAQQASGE
ClpXP protease (E. coli ClpX6 with ClpP14) (E. coli), sequence (P0A6G7 15-207, chain 2 of 2, further chain): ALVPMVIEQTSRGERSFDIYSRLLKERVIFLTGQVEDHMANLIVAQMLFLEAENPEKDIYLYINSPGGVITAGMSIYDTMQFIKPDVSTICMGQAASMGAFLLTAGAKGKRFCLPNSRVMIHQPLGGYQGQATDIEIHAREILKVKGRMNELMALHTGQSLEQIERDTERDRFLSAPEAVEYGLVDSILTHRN

“λ O protein, N-terminally His6-tagged (from UniProt P03688 1-333)” gave a half-life of λ O with ClpXP, no inhibitor of 35 min.
